The values below come from patent US20220133701A1, “METHODS OF TREATING PAIN” (Yeda Research and Development Co. Ltd., priority 2019, published 2022).

The assay has as its target T1, importin α3 (endogenous, mouse DRG sensory neurons) (mouse, UniProt O35343 2-521).
T1 construct: whole, on cells; Endogenous protein detected in fixed neurons with a rabbit polyclonal anti-importin α3 antibody in the proximity ligation assay; The protein is intracellular, not on the cell surface; also called Impα3; Karyopherin Subunit Alpha 4
T1 sequence (looked up): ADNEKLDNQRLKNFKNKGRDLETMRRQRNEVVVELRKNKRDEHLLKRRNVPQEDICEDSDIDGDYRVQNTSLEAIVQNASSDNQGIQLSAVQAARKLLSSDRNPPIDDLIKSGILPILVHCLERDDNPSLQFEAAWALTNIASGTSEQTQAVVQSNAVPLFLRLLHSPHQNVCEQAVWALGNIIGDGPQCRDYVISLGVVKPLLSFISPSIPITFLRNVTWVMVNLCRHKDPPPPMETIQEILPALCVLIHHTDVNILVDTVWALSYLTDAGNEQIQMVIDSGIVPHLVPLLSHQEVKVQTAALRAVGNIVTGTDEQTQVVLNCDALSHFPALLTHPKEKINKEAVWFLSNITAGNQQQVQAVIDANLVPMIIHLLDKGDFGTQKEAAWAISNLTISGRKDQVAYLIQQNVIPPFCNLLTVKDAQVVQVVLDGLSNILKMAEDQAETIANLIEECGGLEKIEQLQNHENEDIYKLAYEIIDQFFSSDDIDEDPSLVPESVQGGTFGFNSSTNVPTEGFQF
Kind of assay: proximity ligation assay of endogenous proteins in cultured DRG sensory neurons. On the procedure:
Proximity Ligation Assay (PLA) in DRG cultures—The Proximity Ligation Assay (PLA) is used to detect spatial proximity within ˜40 nm of two proteins of interest [O. Söderberg et al., Nature Methods 3, 995-1000 (2006)]. DRG neurons were cultured for 24 hours and fixed for 20 minutes in 4% PFA before blocking and permeabilization with 5% Donkey Serum, 1% BSA, 0. 1% Triton X-100 in PBS for 1 hour. They were then incubated with anti-c-Fos (mouse monocolonal 1:1000, Abcam ab208942) and anti-importin α3 (rabbit polyclonal, 1:2000, Michael Bader lab′, MDC Berlin) overnight at 4° C. PLA was performed using Duolink (Sigma: PLA probe anti-mouse minus DU092004, anti-rabbit plus DU092002 with detection using Far-Red DU092013), according to the manufacturer's instructions. Identification of PLA signal within neurons was effected by subsequent immunostaining with goat anti-CGRP (AbD SEROTEC 1720-9007, IF 1:1000) for 60 minutes at room temperature, followed by three washes and an additional 60 minutes incubation with donkey anti-goat Alexa Fluor 488 (Jackson Immunoresearch, 1:1000). Cells were then washed, mounted with Flouromount-G (ThermoFisher Scientific, cat. #00-4958-02) and imaged by confocal microscopy (Olympus FV1000, 60× oil-immersion objective Olympus UPLSAPO-NA 1.35). PLA signals were quantified by counting puncta in ImageJ. […]

B1: c-Fos (other, mouse, UniProt P01101 1-380, looked up)
chain: MMFSGFNADYEASSSRCSSASPAGDSLSYYHSPADSFSSMGSPVNTQDFCADLSVSSANFIPTVTAISTSPDLQWLVQPTLVSSVAPSQTRAPHPYGLPTQSAGAYARAGMVKTVSGGRAQSIGRRGKVEQLSPEEEEKRRIRRERNKMAAAKCRNRRRELTDTLQAETDQLEDEKSALQTEIANLLKEKEKLEFILAAHRPACKIPDDLGFPEEMSVASLDLTGGLPEASTPESEEAFTLPLLNDPEPKPSLEPVKSISNVELKAEPFDDFLFPASSRPSGSETSRSVPDVDLSGSFYAADWEPLHSNSLGMGPMVTELEPLCTPVVTCTPGCTTYTSSFVFTYPEADSFPSCAAAHRKGSSSNEPSSDSLSSPTLLAL
notes: whole, on cells; Endogenous protein in both assays; The protein is intracellular, not on the cell surface
On to B1, for which the binding result was “binds”.
